Values quoted from earlier work as cited in US20180134803A1, “TREATMENT OF HER2-POSITIVE BREAST CANCER” (Genentech, Inc., priority 2016, published 2018).

Experiments:
[1] = system: incurable, locally advanced, recurrent or metastatic solid tumors
[2] = in vivo

Pertuzumab: antibody comprising the variable light and variable heavy amino acid sequences in SEQ ID NOs: 7 and 8; HER dimerization inhibitor
confirmed partial responses ([1]; Phase I, IV every 3 weeks): Two | tumor regression, patients evaluable for response ([1]; Phase I, IV every 3 weeks): 3 of 20 | tolerability ([1]; in vivo, iv): generally well tolerated | mean clearance [2]: 2.69 to 3.74 mL/day/kg | mean terminal elimination half-life [2]: 15.3 to 27.6 days
